From the RNAGym collection of RNA variant scans (doi:10.1073/pnas.2313332121)

B1: TPR t1 (parent)
chain: GACCAAUCUGCCCUCAGAGCUCGAGAACAUCUUCGGAUGCAGAGGAGGCAGGCUUCGGUGGCGCGAUAGCGCCAACGUCCUCAACCUCCAAUGCAUCCCACCACAUGAUGAUGCCUGAAGAGCCUUGGUUUUUUG

Variants of: B1
Test: polymerase ribozyme fitness, log enrichment relative to wild type (log ratio); higher = more active; in vitro selection for triplet polymerase activity
Summary of the method: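 Libraries of mutants in each subunit of a heterodimeric triplet polymerase ribozyme were generated by PCR and transcribed. In triplicate, each went through one in vitro selection round: annealing with biotinylated primer, partner subunit and triplets; frozen incubation at −7 °C; gel excision of extended constructs; streptavidin-bead capture; RT-PCR. Fitness, taken from Illumina sequencing of input and output libraries, is the logarithm of a genotype's enrichment over wild-type enrichment, averaged across replicates with inverse-variance weights. The logarithm is base 2, and genotypes needed ≥10 input reads and ≥1 read per output to be kept.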

| Variant | polymerase ribozyme fitness (log ratio) |
| --- | --- |
| C34G C124A | -3.61 |
| C13A G63A A74C G128A | -5.18 |
| C64A U92A C98U G110C C114A U133A | -6.59 |
| C49A U81C U129G | -3.78 |
| C53A G71U C86U A100U G110U | -4.31 |
| A2G G57A C104A | -3.56 |
| C102U U132A | -1.83 |
| G61A U78G G107A C114U G117A | -6.96 |
| A43C U78C C88U G93A | -2.62 |
| G42U G122A | -1.66 |
| G36A G63A C94U U132A | -1.7 |
| G51A A66U | -5.73 |
| C12U U33G U131A | -4.55 |
| A84U U133A | -0.823 |
| G10C C62U | -0.917 |
| C12A A46U G47C C124G | -0.295 |
| C53U C88A G110A U112G | -4.23 |
| A43U C49A C114G | -1.78 |
| C53A G63U U81G A83U G120C | -3.85 |
| C123U U126A | 0.0607 |
| C56A G107C | -5.28 |
| C12U C70A C88G U129C | -2.57 |
| C11A G71U C104A U129G G135U | -5.56 |
| C8A C70U C88U | -0.306 |

| Variant | polymerase ribozyme fitness (log ratio) |
| --- | --- |
| A68G C88G A105C A111C | -4.63 |
| U14G U87G G127C | -4.35 |
| G19C G42U U92A | -2.69 |
| C98U A105G C114G C115A G135U | -7.98 |
| A6U G69A C124A | -1.22 |
| C53G C73U G113C A121C | -2.12 |
| C20A G63A A74C U96A | -5.16 |
| U7G A16C U55G C56U A84G | -4.09 |
| A24U A83U | -7.24 |
| U9G A26U G39U U78C C82G | -4.7 |
| G10A G52A G60A C79A C115A | -2.07 |
| G61U G69C C72U A111C | -6.94 |
| C72G A103U | -5.45 |
| C12A G52A C73U A91G | -2.04 |
| C4U C8A C12U C79G | -1.25 |
| C11G C76U C99A U130G | -6.95 |
| U9A A26G G47A C49U C82G G107U | -6.22 |
| G36A G44A G61U G77U A84U | -3.54 |
| C12U G17C C49U C82G C94U C99G C123A | -7.59 |
| A2C C3G A90U C115U | -3.68 |
| C124U G127A G135U | -0.796 |
| C13G A66U C114A | -4.3 |
| C12G A66C G93A C104U | -1.71 |
| A18U C79A | -4.95 |

| Variant | polymerase ribozyme fitness (log ratio) |
| --- | --- |
| A16U A50C | -2.04 |
| G77A U78C A105C A121C | -1.42 |
| U116A U129A | -4.24 |
| A2C C82A | -2.04 |
| G51A U55G A66U U112A | -6.46 |
| C20A C70U G93A G113C U132C | -7.65 |
| G51A C72U C82U A83G C94U U126A | -2.93 |
| A91C U112A C123A G128C | -3.53 |
| C15U C34G C49G G69U G120A | -3.56 |
| A6U A16C | -2.44 |
| A41U U92A | -0.903 |
| C40A G42A G48U G58A A90G | -2.65 |
| C11A G69U C97A C101A C104A | -3.94 |
| U9C G23U C31U A41G G52A C82G A83C A121C | -6.19 |
| A121G U133G | 1.55 |
| U7A C62U U129A | -0.65 |
| C56A C80U G120C C123G | -0.961 |
| G47A C62G C72U | -4.13 |
| C22A A95U | -4.83 |
| C15G C40A | -3.83 |
| C15G C40U | -2.91 |
| U87A A118G | 0.111 |
| G45U C104U A119G U130A | -1.09 |
| G47U G127C U130C | -2.06 |

| Variant | polymerase ribozyme fitness (log ratio) |
| --- | --- |
| A37U G51C C79G A118G | -3.37 |
| U32C G48A G52U A66U C114A | -5.75 |
| C12U G69C | -0.628 |
| C13U A29U C56A G65A G77A | -6.34 |
| A27U G48U A50U C123U | -2.86 |
| C22G C94G | -4.33 |
| C20G G45A U130C | -5.42 |
| U55C G58A | 0.121 |
| A5U G71C C102G C114G C115G | -6.55 |
| C40G C72U G93A | -0.859 |
| C3A C79A G120U G128A | -3.06 |
| A29U G44U G60A G113U A118G U131G | -5.8 |
| G17U C72U U130A | -2.54 |
| A16U A41C G57A A84U | -3.81 |
| C79U C94A C99U A121G | -2.9 |
| C15G A26U G44C G117C | -2.36 |
| A2C G71A C115A C123U | -2.71 |
| G52A U87C | 0.43 |
| G19C G63C A111G C115G | -5.11 |
| C53G C97U C104A A118G | -3.19 |
| U81C C82A | -1.8 |
| G71A G122A | -1.18 |
| C62A A74C | -2.68 |
| A16U U78A U92A | -4.78 |

| Variant | polymerase ribozyme fitness (log ratio) |
| --- | --- |
| C22G G42C C115U | -3.85 |
| G44C C98U U126C | -3.05 |
| C8U U14A G61U C70U C104U C124A G135C | 0.783 |
| A108C | -3.71 |
| G36A A37G A111G G113C A121C | -5.88 |
| C56U G77A | 0.388 |
| C62A C97U | -1.52 |
| G93A C104U | -0.0844 |
| U7A C72G C88A C89G C102A G107A G113A | -6.44 |
| C20U A100U | -2 |
| C22A A46C | -5.4 |
| A41U A43G C94U | -3.17 |
| A18C C49U C72G | -3.75 |
| U9A G19C A41U G63C | -3.34 |
| A29G A37C | -2.19 |
| A5G C15U C70U C101U C124U | -0.0911 |
| C34U C56A G71C U112A | -6.49 |
| G17U C70U | -3.3 |
| C8U A46C G63U U106C | -1.81 |
| G23U A121C | -3.5 |
| G36U A46U C72A C97U | -1.58 |
| C15A C64G C70A U92C G110C C115U G127U | -7.47 |
| A121G G135U | 0.495 |
| G17A C73U U112A A119U C123U U125C | -2.9 |

| Variant | polymerase ribozyme fitness (log ratio) |
| --- | --- |
| C40U G44A U125A | -1.32 |
| C11U A66C C94U | -1.69 |
| A29U C114G | -4.29 |
| C82G C94G | -2.14 |
| C22G C34G C102U C123A | -4.03 |
| C31A A111C | -3.67 |
| A66G A100U G128A | -5.33 |
| U32C G52U G77U C79A A90G C115U U126A | -5.37 |
| C49A C56U G120U | 0.2 |
| A5U G47U A121U C124U | 0.495 |
| U109G G113A | -5.72 |
| C76A G110A | -1.79 |
| A74C G93A | -0.578 |
| C3U C20A G57A G60U G117A | -4.91 |
| C13A C73G | -3.11 |
| A24C G63A | -6.87 |
| A50U G69A U81A A100C | -4.08 |
| U81C C114U | -1.96 |
| A111G G113C | -2.06 |
| C89A C97U | -2.16 |
| U55C G61A U125A | -0.857 |
| G60A G69U A95U U126A | -2.8 |
| U32C G61U C85G | -3.56 |
| C15A G69U G77U G122A C123A | -1.41 |

| Variant | polymerase ribozyme fitness (log ratio) |
| --- | --- |
| G60A A90G U96C C101G | -1.58 |
| C34U G93A | -3.87 |
| G39U A43G | -1.75 |
| U78C C124G | 1.08 |
| C13U C72U A74C | 0.529 |
| A2C C11A G48U C72U C80U G120U | -3.83 |
| G10C U14A G48A G110A | -3.91 |
| C13A A27U A43U G57C | -4.33 |
| A26G G60C | -3.07 |
| A50U C56U C64U U78C C85A U109A | -6.76 |
| A6C C85A | -2.67 |
| C56U G63A | -4.43 |
| C11A U87A | -1.66 |
| U14G C40A G71U A121G G127U | 0.306 |
| G69U G93A | -0.201 |
| C3U C20U | -1.7 |
| C49A C88G G120C | 0.68 |
| C70U G110U G120A U129G | -5.09 |
| C12G A27C C104U G113U G120A G122A U130A | -6.9 |
| C76G U78A U81A C89G A119U | -3.52 |
| A66C C85A C86A | -2.7 |
| A26C A27C U59A C72U C123A | -6.08 |
| C8U G52U A105G | -3.89 |
